Laboratory results published in US20180312578A1 (Ablynx, published 2018).
Numbering of substitutions follows the chain as printed. Names may count otherwise.

B1: Reference C (SEQ ID NO: 3) (VHH)
VHH: EVQLLESGGGLVQPGGSLRLSCAASGFTFDTSSMLWVRQAPGKGLEWVSVIHQSGTPTYYADSVKGRFTISRDNSKNTLYLQMNSLRAEDTAVYYCAKFPSSRMKFDYWGQGTLVTVSS
notes: Heavy-chain immunoglobulin single variable domain (VH-derived domain antibody); Captured on human serum albumin; also called DOM7r-92-100
B2: Reference D+L11V+V89L (SEQ ID NO: 93) (VHH)
VHH: B1 VHH with L11V, V93L
B3: Reference D (SEQ ID NO: 4) (VHH)
VHH: B1 VHH
notes: Captured on human serum albumin; also called DOM7r-92-104
B4: Reference D+L11V+V89L+T110K (SEQ ID NO: 94) (VHH)
VHH: B1 VHH with L11V, V93L, T116K

What follows are binders tested against T1, human serum albumin (human, UniProt P02768 25-609) (assay: ProteOn SPR, capture on immobilised HSA).
T1 construct: also called HSA
Experimental: In case of binding of pre-existing antibodies on Nanobodies captured on human serum albumin (HSA) was evaluated using the ProteOn XPR36 (Bio-Rad Laboratories, Inc.). PBS/Tween (phosphate buffered saline, pH7.4, 0.005% Tween20) was used as running buffer and the experiments were performed at 25° C. The ligand lanes of a ProteOn GLC Sensor Chip were activated with EDC/NHS (flow rate 30 μl/min) and HSA was injected at 10 μg/ml in ProteOn Acetate buffer pH4.5 (flow rate 100 μl/min) to render immobilization levels of approximately 3200 RU. After immobilization, surfaces were deactivated with ethanolamine HCl (flow rate 30 μl/min). Nanobodies were injected for 2 minutes at 45 μl/min over the HSA surface to render a Nanobody capture level of approximately 200 RU. The samples containing pre-existing antibodies were centrifuged for 2 minutes at 14,000 rpm and supernatant was diluted 1:10 in PBS-Tween20 (0.005%) before being injected for 2 minutes at 45 μl/min followed by a subsequent 400 seconds dissociation step. After each cycle (i.e. before a new Nanobody capture and blood sample injection step) the HSA surfaces were regenerated with a 2 minute injection of HCl (100 mM) at 45 μl/min. Sensorgram processing and data analysis was performed with ProteOn Manager 3.1.0 (Bio-Rad Laboratories, Inc.). Sensorgrams showing pre-existing antibody binding were obtained after double referencing by subtracting 1) Nanobody-HSA dissociation and 2) non-specific binding to reference ligand lane.

Row | Binder | binding result
1 | B1 | binds
2 | B2 | binds
3 | B3 | binds
4 | B4 | binds
